Reference: the Human Domainome abundance scans (Beltran et al. 2025)
± gives the uncertainty stated by the source.

B1: Transcription factor SOX-4, residues 60 to 127; numbered along this chain, Q06945 (parent)
chain: KRPMNAFMVWSQIERRKIMEQSPDMHNAEISKRLGKRWKLLKDSDKIPFIREAERLRLKHMADYPDYK

Variants of: B1
Assay: abundance fitness (aPCA) (normalised: wild type 0, dead -1); higher = more abundant; growth selection in yeast, the domain comes from the species named
Conditions: Homo sapiens

Point of comparison: E29I, abundance fitness -0.916 ± 0.19. Against it:
- M25W — within error, -0.672 ± 0.12
- M25Y — within error, -0.679 ± 0.21
- H26A — higher, 0.113 ± 0.07
- H26C — higher, 0.127 ± 0.084
- H26D — higher, 0.191 ± 0.094
- H26E — higher, 0.024 ± 0.095
- H26F — within error, -0.713 ± 0.43
- H26G — higher, -0.082 ± 0.071
- H26I — higher, -0.088 ± 0.11
- H26K — higher, 0.138 ± 0.15
- H26L — higher, -0.1 ± 0.051
- H26M — higher, -0.182 ± 0.093
- H26N — higher, 0.289 ± 0.25
- H26P — higher, 0.134 ± 0.092
- H26Q — higher, 0.111 ± 0.1
- H26S — higher, 0.291 ± 0.075
- H26T — higher, 0.154 ± 0.058
- H26V — higher, -0.039 ± 0.11
- H26W — higher, -0.281 ± 0.079
- H26Y — within error, -0.652 ± 0.39
- N27A — higher, 0.004 ± 0.055
- N27C — higher, -0.164 ± 0.055
- N27D — higher, 0.147 ± 0.045
- N27F — higher, -0.245 ± 0.057
- N27G — higher, -0.103 ± 0.033
- N27H — higher, 0.059 ± 0.049
- N27I — higher, -0.192 ± 0.054
- N27K — higher, -0.03 ± 0.052
- N27L — higher, -0.162 ± 0.038
- N27M — higher, -0.043 ± 0.054
- N27P — higher, 0.184 ± 0.076
- N27R — higher, -0.112 ± 0.044
- N27S — higher, 0.07 ± 0.049
- N27T — higher, -0.049 ± 0.051
- N27V — higher, -0.07 ± 0.041
- N27W — higher, -0.019 ± 0.057
- N27Y — higher, -0.179 ± 0.052
- A28C — higher, -0.351 ± 0.15
- A28D — higher, -0.152 ± 0.12
- A28E — higher, -0.078 ± 0.069
- A28G — higher, -0.166 ± 0.054
- A28I — within error, -0.463 ± 0.29
- A28K — higher, -0.099 ± 0.086
- A28L — higher, -0.195 ± 0.068
- A28Q — higher, -0.145 ± 0.076
- A28R — higher, -0.132 ± 0.052
- A28S — higher, -0.029 ± 0.052
- A28T — higher, -0.234 ± 0.066
- A28V — higher, -0.169 ± 0.063
- A28W — higher, -0.242 ± 0.062
- E29A — higher, -0.199 ± 0.071
- E29C — higher, -0.394 ± 0.2
- E29D — higher, -0.074 ± 0.062
- E29G — higher, -0.628 ± 0.089
- E29H — within error, -0.879 ± 0.46
- E29K — within error, -0.691 ± 0.24
- E29L — higher, -0.518 ± 0.067
- E29M — higher, -0.225 ± 0.12
- E29P — higher, -0.162 ± 0.15
- E29Q — higher, -0.367 ± 0.068
- E29R — within error, -0.883 ± 0.1
- E29S — higher, -0.539 ± 0.094
- E29T — higher, -0.348 ± 0.12
- E29W — within error, -0.84 ± 0.18
- I30A — higher, -0.605 ± 0.1
- I30C — higher, -0.277 ± 0.046
- I30D — within error, -0.871 ± 0.11
- I30E — within error, -0.8 ± 0.092
- I30F — within error, -0.912 ± 0.11
- I30G — within error, -0.769 ± 0.055
- I30H — within error, -1.11 ± 0.17
- I30K — within error, -0.999 ± 0.12
- I30M — higher, -0.254 ± 0.063
- I30P — within error, -0.976 ± 0.18
- I30Q — within error, -0.7 ± 0.078
- I30S — within error, -0.858 ± 0.071
- I30T — within error, -0.661 ± 0.12
- I30V — higher, 0.022 ± 0.037
- I30W — within error, -0.875 ± 0.089
- I30Y — within error, -0.8 ± 0.11
- S31C — higher, -0.027 ± 0.049
- S31D — higher, 0.154 ± 0.04
- S31F — higher, -0.212 ± 0.043
